This is an account of results in patent US20200392147, “AMIDINO- AND AMINO-ROCAGLATES AS NOVEL TRANSLATION INHIBITORS AND ANTICANCER AGENTS” (TRUSTEES OF BOSTON UNIVERSITY, published 2020).

Experiment in all cases: FP
Common to all, as to conditions: tags: His6 (pET15b, E. coli BL21(DE3)); label: FAM

Series [1] deals with T1, eIF4A1 (UniProt P60843 P60843:1-406). Here is the method: FAM-labelled RNA was incubated in the presence of 500 nM eIF4A1 and the indicated concentration of CR-1-31-B for 30 min, after which time FP measurements were obtained. The change in FP relative to vehicle controls is presented. n=3 SD.
T1 sequence (P60843 whole entry, one chain of several): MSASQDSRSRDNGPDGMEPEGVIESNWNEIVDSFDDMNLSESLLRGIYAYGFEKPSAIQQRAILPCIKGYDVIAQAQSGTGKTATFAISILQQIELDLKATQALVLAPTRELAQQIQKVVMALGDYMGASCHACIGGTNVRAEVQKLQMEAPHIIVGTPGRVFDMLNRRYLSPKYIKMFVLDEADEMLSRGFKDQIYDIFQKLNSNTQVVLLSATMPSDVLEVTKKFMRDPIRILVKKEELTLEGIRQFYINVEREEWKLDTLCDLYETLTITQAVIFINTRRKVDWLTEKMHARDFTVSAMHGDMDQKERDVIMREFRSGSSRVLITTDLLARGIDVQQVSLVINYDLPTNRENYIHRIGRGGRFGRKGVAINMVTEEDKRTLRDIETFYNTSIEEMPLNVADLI
FIGS. 17A-17F. Assessment of eIF4A1 and eIF4A2 RNA binding specificity. 17A. Chemical structure of the most commonly used rocaglates in biological studies 17B. Coomassie blue staining of SDS-PAGE showing eIF4A1 and eIF4A2 preparations used herein. 17C. eIF4A1 and eIF4A2 have similar RNA binding specificities. eIF4A1 or eIF4A2 (500 nM) were incubated in the presence of FAM-labelled RNA (10 nM) having the indicated sequence composition for 30 mins, after which FP measurements were taken. The change in FP obtained relative to vehicle controls is presented. n=3 SD. 17D. Binding of eIF4A1 and eIF4A2 to RNA is equally responsive to CR-1-31-B (23). FAM labeled poly r(AG)₈ (SEQ ID NO: 2) (10 nM) was mixed with the indicated concentrations of eIF4A1 or eIF4A2 either in the presence of vehicle (DMSO) or […] CR-1-31-B(23). Reactions were equilibrated at RT for 30 minutes prior to measuring light polarization. n=3 SD. 17E. […] FAM-labelled RNA was incubated in the presence of 500 nM eIF4A1 and the indicated concentration of CR-1-31-B (23) for 30 min, after which time FP measurements were obtained. The change in FP relative to vehicle controls is presented. n=3±SD. 17F. […]

For series [2], the target named is eIF4A2 (UniProt P10630 P10630:1-407). Here is the method: (§1) FIGS. 17A-17F. Assessment of eIF4A1 and eIF4A2 RNA binding specificity. 17A. Chemical structure of the most commonly used rocaglates in biological studies 17B. Coomassie blue staining of SDS-PAGE showing eIF4A1 and eIF4A2 preparations used herein. 17C. eIF4A1 and eIF4A2 have similar RNA binding specificities. eIF4A1 or eIF4A2 (500 nM) were incubated in the presence of FAM-labelled RNA (10 nM) having the indicated sequence composition for 30 mins, after which FP measurements were taken. The change in FP obtained relative to vehicle controls is presented. n=3 SD. 17D. Binding of eIF4A1 and eIF4A2 to RNA is equally responsive to CR-1-31-B (23). FAM labeled poly r(AG)₈ (SEQ ID NO: 2) (10 nM) was mixed with the indicated concentrations of eIF4A1 or eIF4A2 either in the presence of vehicle (DMSO) or […] CR-1-31-B(23). Reactions were equilibrated at RT for 30 minutes prior to measuring light polarization. n=3 SD. 17E. […] FAM-labelled RNA was incubated in the presence of 500 nM eIF4A1 and the indicated concentration of CR-1-31-B (23) for 30 min, after which time FP measurements were obtained. The change in FP relative to vehicle controls is presented. n=3±SD. 17F. The extent of eIF4A-RNA binding stimulated by CR-1-31-B 23 scales with polypurine content. FAM-labelled RNA was incubated with 500 nM eIF4A1 and the indicated concentration of CR-1-31-B (23) for 30 min, after which time FP measurements were obtained. The change in FP obtained relative to vehicle controls is presented. n=3 SD.
Sequence of eIF4A2 (P10630 whole entry, one chain of several): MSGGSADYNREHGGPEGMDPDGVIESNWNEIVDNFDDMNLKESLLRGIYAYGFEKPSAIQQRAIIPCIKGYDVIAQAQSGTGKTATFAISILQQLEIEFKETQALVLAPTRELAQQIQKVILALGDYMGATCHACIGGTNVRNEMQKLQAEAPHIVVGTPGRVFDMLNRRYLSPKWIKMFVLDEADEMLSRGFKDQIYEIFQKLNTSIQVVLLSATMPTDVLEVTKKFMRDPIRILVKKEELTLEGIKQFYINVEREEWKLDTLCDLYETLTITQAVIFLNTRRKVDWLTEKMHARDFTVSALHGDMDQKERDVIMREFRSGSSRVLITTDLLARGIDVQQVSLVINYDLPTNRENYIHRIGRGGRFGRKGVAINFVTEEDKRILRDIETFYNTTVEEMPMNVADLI

Series [3] concerns the target T1, eIF4A1. The procedure: as §1
The source holds these as a separate data set.

Turning to AGAGAGAGAGAGAGAG (ssRNA) [poly r(AG)8], the binding result in series [1] and in series [2] was “binds” each time.
On to AGAAGAAGAAGAAGAA (ssRNA) [r(A(GAA)5)], for which the binding result in series [2] and in series [3] was “binds” each time.
